{"source": "paper PMC9652321", "about": "“Structural basis of human SNAPc recognizing proximal sequence element of snRNA promoter”", "key": {"mSNAPc#2 SNAP190-Y389A": {"target": "T1, mSNAPc#2 SNAP190-Y389A (Homo sapiens, UniProt Q5SXM2;Q92966;Q16533;O75971 1-505;1-411;1-268;1-98, Y389A)", "T1 sequence 1": "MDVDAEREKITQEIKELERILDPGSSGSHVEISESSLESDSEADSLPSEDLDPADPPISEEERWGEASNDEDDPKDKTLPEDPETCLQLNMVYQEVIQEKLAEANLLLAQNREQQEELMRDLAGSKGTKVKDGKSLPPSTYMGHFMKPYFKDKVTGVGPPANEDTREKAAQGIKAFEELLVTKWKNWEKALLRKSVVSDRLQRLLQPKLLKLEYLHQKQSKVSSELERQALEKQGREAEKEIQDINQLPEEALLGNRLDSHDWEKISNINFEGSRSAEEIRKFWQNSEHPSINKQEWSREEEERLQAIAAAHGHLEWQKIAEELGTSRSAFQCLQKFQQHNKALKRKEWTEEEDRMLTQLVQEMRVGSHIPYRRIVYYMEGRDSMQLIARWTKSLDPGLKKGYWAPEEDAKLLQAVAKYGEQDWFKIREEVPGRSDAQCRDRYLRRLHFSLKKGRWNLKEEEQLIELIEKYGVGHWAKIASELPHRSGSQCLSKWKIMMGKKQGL", "T1 sequence 2": "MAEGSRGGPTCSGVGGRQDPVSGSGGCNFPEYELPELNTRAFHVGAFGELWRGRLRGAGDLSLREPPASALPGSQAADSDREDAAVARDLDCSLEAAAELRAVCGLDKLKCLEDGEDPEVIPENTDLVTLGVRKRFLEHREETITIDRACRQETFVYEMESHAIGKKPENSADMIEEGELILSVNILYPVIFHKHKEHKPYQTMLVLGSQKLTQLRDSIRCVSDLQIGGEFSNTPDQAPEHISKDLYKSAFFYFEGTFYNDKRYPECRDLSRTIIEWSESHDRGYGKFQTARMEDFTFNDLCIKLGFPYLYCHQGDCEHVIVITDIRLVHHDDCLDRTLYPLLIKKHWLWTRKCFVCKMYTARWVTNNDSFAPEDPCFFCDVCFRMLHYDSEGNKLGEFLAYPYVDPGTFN", "T1 sequence 3": "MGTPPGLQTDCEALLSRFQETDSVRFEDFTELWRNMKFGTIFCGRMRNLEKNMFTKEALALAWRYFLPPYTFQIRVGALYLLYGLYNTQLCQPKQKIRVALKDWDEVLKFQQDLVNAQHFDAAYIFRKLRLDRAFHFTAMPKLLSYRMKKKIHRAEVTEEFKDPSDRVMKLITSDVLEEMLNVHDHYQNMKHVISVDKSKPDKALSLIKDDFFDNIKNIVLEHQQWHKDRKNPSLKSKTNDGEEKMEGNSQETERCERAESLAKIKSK", "T1 sequence 4": "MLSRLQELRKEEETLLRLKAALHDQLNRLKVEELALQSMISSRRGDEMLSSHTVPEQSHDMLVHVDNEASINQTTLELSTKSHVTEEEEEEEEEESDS", "assay": "SPR; EMSA: 100 mM KCl, 25 mM HEPES-K pH 7.6, 12.5 mM MgCl2, 10 uM ZnCl2, 0.1 mM EDTA, 10% glycerol, 3 mM DTT, 0.5 mM PMSF, 50 nM DNA, RT 30 min; SPR: 100 mM KCl, 12.5 mM MgCl2, 10 uM ZnCl2, 0.1 mM EDTA, 0.05% P20, 25 C", "conditions": "protein: recombinant; tags: as P1; copies: 1;1;1;1"}, "mSNAPc#2 SNAP190-R445A": {"target": "T2, mSNAPc#2 SNAP190-R445A (Homo sapiens, UniProt Q5SXM2;Q92966;Q16533;O75971 1-505;1-411;1-268;1-98, R445A)", "T2 sequence 1": "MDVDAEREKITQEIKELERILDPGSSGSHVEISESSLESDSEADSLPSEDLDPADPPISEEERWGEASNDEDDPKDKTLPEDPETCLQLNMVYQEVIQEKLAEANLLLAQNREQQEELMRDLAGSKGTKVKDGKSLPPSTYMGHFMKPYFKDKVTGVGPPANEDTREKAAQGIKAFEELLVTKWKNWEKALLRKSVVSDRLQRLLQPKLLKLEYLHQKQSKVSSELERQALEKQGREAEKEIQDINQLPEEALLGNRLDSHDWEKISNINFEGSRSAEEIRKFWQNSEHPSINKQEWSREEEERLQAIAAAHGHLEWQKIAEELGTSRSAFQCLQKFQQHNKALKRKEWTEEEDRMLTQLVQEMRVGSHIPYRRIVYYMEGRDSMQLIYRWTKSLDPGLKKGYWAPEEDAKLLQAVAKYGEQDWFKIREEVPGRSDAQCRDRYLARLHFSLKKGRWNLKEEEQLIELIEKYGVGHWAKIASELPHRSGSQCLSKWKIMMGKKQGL", "T2 sequence 2": "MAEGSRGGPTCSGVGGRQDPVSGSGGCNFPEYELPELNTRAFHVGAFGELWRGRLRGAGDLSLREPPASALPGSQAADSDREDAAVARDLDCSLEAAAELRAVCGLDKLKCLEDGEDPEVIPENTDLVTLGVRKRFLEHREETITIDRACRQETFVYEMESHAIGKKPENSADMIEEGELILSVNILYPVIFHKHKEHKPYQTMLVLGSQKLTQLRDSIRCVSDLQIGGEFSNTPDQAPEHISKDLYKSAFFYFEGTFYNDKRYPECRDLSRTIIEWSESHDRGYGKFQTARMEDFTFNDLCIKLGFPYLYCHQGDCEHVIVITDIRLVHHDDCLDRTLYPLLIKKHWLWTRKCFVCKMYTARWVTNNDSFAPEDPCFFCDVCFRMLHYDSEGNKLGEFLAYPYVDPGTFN", "T2 sequence 3": "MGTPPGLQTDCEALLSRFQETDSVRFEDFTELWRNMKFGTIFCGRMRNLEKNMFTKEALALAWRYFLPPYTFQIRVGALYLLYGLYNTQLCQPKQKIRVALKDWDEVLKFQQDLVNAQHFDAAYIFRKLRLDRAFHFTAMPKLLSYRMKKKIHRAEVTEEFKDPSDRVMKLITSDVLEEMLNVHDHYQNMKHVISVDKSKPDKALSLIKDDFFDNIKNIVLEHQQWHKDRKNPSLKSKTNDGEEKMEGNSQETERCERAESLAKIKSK", "T2 sequence 4": "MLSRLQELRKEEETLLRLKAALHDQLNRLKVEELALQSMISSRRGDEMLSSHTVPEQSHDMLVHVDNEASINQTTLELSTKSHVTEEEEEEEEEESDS", "assay": "SPR; EMSA: 100 mM KCl, 25 mM HEPES-K pH 7.6, 12.5 mM MgCl2, 10 uM ZnCl2, 0.1 mM EDTA, 10% glycerol, 3 mM DTT, 0.5 mM PMSF, 50 nM DNA, RT 30 min; SPR: 100 mM KCl, 12.5 mM MgCl2, 10 uM ZnCl2, 0.1 mM EDTA, 0.05% P20, 25 C", "conditions": "protein: recombinant; tags: as P1; copies: 1;1;1;1"}, "mSNAPc#2 WT": {"target": "T3, mSNAPc#2 WT (Homo sapiens, UniProt Q5SXM2;Q92966;Q16533;O75971 1-505;1-411;1-268;1-98)", "T3 sequence 1": "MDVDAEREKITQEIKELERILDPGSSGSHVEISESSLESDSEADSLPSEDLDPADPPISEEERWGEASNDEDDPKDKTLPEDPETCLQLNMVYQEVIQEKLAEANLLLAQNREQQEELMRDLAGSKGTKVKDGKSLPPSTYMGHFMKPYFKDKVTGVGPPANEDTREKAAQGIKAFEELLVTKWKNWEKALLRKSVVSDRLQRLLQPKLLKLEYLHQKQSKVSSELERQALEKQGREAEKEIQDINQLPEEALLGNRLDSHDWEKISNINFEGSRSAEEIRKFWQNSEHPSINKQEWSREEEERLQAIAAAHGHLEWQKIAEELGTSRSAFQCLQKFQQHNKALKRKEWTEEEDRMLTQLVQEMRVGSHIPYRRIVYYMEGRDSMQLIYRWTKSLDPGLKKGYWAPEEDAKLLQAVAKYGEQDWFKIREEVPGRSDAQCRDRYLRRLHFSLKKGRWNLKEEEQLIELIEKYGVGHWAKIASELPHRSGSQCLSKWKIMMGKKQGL", "T3 sequence 2": "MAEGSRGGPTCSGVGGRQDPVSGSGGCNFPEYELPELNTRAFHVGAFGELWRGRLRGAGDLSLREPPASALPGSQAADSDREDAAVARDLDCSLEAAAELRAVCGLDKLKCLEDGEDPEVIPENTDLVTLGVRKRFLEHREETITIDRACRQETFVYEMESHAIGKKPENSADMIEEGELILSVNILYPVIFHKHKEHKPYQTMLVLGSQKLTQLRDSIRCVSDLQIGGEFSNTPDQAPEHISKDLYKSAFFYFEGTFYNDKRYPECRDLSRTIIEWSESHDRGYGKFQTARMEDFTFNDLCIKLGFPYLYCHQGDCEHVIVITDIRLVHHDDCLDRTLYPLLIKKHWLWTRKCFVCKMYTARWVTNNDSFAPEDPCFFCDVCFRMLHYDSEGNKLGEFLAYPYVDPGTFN", "T3 sequence 3": "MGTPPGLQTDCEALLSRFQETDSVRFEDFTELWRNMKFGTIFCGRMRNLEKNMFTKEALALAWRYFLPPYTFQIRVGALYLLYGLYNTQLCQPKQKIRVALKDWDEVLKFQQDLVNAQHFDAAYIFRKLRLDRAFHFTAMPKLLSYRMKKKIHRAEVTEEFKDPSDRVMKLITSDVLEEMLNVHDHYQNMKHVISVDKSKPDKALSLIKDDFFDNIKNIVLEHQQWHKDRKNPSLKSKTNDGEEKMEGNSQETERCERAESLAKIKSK", "T3 sequence 4": "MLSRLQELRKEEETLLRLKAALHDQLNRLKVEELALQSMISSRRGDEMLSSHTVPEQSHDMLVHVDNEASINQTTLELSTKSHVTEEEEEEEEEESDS", "assay": "SPR; protein immobilized; EMSA: 100 mM KCl, 25 mM HEPES-K pH 7.6, 12.5 mM MgCl2, 10 uM ZnCl2, 0.1 mM EDTA, 10% glycerol, 3 mM DTT, 0.5 mM PMSF, 50 nM DNA, RT 30 min; SPR: 100 mM KCl, 12.5 mM MgCl2, 10 uM ZnCl2, 0.1 mM EDTA, 0.05% P20, 25 C", "conditions": "protein: recombinant; tags: FLAG N-term SNAP190; 6xHis N-term SNAP43; copies: 1;1;1;1"}}, "data": [{"binder": "25 bp hU6-1 PSE (SPR) (dsDNA) DNA 1: TGCTTACCGTAACTTGAAAGTATTT DNA 2: AAATACTTTCAAGTTACGGTAAGCA", "values": [{"measurement": "Kd", "setting": "mSNAPc#2 SNAP190-Y389A", "result": 1080, "unit": "nM"}, {"measurement": "Kd", "setting": "mSNAPc#2 SNAP190-R445A", "result": 603, "unit": "nM"}, {"measurement": "Kd", "setting": "mSNAPc#2 WT", "result": 289, "unit": "nM"}]}]}
